In patent publication US20230212268A1 (UNM RAINFOREST INNOVATIONS, published 2023) one finds binding result, EC50 and Bmax signal data, which are given here for five molecules.

Values joined by “and” are separate entries in the source; they are usually repeats but may differ in a detail not shown here. Equal values may be shown once. Read-outs that look alike come from different tables or passages of the source.

For assay [1], the target named is T1, recombinant EBOV glycoprotein (EBOV (Zaire ebolavirus), UniProt Q05320 33-650).
T1 sequence: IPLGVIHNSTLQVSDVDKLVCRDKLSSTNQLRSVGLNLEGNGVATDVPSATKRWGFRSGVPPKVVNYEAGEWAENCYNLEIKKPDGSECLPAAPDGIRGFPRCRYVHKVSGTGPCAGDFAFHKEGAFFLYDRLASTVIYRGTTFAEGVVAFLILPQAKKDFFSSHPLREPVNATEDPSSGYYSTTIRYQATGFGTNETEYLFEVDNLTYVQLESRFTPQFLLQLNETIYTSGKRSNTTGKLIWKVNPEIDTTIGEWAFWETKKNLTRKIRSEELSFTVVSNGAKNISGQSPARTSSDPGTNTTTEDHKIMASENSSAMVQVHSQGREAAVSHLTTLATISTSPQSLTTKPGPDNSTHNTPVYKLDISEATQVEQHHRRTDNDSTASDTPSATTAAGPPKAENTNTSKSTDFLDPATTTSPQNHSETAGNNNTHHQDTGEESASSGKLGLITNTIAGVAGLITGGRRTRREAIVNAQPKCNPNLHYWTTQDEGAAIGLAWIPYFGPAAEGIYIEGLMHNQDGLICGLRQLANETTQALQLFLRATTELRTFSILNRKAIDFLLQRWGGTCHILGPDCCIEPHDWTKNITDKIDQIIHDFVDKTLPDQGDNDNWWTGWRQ
The assay is described as follows: ELISA, GP coated. (In general: ELISA stands for enzyme-linked immunosorbent assay.)

Assay [2] addresses T2, recombinant TAFV glycoprotein (TAFV (Tai Forest virus), UniProt Q66810 33-650).
T2 sequence: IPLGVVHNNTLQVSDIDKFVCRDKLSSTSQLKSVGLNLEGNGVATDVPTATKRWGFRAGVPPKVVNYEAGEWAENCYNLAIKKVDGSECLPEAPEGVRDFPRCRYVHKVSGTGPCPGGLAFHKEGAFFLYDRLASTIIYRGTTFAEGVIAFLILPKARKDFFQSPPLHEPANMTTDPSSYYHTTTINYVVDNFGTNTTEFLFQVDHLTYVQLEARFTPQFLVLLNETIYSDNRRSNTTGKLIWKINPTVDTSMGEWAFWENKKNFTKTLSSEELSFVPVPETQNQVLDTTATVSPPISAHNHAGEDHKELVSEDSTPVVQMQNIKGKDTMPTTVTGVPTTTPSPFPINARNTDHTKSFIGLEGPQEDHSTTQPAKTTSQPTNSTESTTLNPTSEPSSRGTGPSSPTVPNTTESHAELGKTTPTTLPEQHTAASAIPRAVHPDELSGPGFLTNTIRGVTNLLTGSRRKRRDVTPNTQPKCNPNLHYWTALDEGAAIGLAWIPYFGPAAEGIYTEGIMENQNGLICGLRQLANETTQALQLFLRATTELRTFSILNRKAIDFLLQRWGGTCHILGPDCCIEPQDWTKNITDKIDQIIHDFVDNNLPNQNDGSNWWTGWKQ
The experiment in a line: ELISA, GP coated.

Assay [3] has as its target T3, recombinant SUDV glycoprotein (SUDV (Sudan ebolavirus), UniProt Q7T9D9 33-650).
T3 sequence: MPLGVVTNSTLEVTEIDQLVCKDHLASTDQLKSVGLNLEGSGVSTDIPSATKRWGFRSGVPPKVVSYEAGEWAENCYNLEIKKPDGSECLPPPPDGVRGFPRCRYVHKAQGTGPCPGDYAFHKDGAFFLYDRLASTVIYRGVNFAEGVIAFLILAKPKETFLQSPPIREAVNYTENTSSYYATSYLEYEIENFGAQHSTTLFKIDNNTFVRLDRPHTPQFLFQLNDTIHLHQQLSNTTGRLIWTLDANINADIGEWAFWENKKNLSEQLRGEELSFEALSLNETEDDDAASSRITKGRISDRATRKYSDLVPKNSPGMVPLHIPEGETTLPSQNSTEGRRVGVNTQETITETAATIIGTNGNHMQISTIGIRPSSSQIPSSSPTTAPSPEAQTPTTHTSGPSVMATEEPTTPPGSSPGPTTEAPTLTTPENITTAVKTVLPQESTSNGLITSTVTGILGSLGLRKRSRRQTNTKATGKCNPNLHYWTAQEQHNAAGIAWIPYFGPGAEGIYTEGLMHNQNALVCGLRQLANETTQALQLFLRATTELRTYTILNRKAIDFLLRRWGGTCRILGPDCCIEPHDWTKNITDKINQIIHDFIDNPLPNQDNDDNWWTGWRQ
The experiment in a line: ELISA, GP coated.

Assay [4] has as its target T4, recombinant MARV glycoprotein (MARV (marburgvirus, Ravn), UniProt Q1PDC7 19-648).
T4 sequence: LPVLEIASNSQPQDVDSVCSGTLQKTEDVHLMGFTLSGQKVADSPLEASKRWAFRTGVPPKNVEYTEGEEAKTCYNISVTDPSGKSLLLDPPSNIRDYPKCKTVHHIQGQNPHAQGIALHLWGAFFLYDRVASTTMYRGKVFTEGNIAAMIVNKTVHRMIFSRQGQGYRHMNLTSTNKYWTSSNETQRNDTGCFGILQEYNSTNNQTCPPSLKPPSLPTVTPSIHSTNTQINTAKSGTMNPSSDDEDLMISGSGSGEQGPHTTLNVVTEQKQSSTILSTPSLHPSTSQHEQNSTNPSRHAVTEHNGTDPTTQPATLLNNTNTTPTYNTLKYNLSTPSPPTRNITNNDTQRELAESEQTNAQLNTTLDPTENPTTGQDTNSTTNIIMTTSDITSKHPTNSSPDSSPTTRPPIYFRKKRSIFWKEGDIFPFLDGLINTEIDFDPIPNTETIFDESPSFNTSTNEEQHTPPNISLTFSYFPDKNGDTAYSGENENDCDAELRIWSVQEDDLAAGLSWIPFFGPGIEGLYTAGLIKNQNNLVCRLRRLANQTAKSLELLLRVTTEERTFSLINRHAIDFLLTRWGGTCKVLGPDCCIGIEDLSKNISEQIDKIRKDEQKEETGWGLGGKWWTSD
The assay is described as follows: ELISA, GP coated.

The target in assay [5] is T5, recombinant RESTV glycoprotein (RESTV (Reston ebolavirus), UniProt Q66799 34-651).
T5 sequence: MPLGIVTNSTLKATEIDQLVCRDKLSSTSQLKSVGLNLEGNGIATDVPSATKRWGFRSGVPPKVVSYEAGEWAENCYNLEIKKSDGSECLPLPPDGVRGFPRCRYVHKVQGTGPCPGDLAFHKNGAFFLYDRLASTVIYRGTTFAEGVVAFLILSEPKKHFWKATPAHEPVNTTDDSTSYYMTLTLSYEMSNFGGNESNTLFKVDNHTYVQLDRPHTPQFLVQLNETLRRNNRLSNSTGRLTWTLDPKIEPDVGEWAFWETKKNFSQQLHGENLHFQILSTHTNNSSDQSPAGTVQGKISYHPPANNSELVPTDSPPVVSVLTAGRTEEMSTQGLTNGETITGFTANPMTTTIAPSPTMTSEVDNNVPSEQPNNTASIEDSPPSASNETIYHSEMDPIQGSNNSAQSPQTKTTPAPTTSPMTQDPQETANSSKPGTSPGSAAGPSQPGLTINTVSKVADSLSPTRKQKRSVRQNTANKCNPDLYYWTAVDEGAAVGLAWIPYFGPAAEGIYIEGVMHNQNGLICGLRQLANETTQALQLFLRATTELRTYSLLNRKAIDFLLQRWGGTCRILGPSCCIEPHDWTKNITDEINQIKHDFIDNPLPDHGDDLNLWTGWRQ
The experiment in a line: ELISA, GP coated.

Assay [6] addresses T2, recombinant TAFV glycoprotein. The experiment in a line: ELISA dose response, GP coated.
For assay [7], the target named is T3, recombinant SUDV glycoprotein. The assay is described as follows: ELISA dose response, GP coated.
In assay [8] the target is T1, recombinant EBOV glycoprotein. The experiment in a line: ELISA dose response, GP coated.
The target in assay [9] is T4, recombinant MARV glycoprotein. The assay is described as follows: ELISA dose response, GP coated.
The target in assay [10] is T5, recombinant RESTV glycoprotein. The experiment in a line: ELISA dose response, GP coated.
Assay [11] has as its target T2, recombinant TAFV glycoprotein. The assay is described as follows: maximal binding from ELISA dose-response fit.
Assay [12] has as its target T3, recombinant SUDV glycoprotein. The experiment in a line: maximal binding from ELISA dose-response fit.
Assay [13] deals with T1, recombinant EBOV glycoprotein. The experiment in a line: maximal binding from ELISA dose-response fit.
Assay [14] has as its target T4, recombinant MARV glycoprotein. The assay is described as follows: maximal binding from ELISA dose-response fit.
For assay [15], the target named is T5, recombinant RESTV glycoprotein. The assay is described as follows: maximal binding from ELISA dose-response fit.
Assay [16] addresses T2, recombinant TAFV glycoprotein.

B1: EbovGPscFv16-1 (scFv)
scFv: MAWSHPQFEKTGSGGAELVRSGASVKLSCTASGFNIKDDYMHWVKQRPEQGLKWIGWIDPENGDTEYASKLQGKATITADTSSNTAYLQLSSLTSEDTAVYYCARPIYYYGSSHWYFDVWGTGTTVTVSSGGGGSGGGGSGGGGSGGGGSLSLPVSLGDQASISCRSSQSLVHSNGNTYLHWYLQKPGQSPKLLIYKVSNRFSGVPDRFSGSGSGTDFTLKISRVEAEDLGVYFCSQSTHVPWTFGGGTKLEVKRADAAPTVSIFPPSSEQLTSGGASVVCFLNNFTHCQELQQDECS
Consider B1, for which, in [1], the binding result is “binds”.

B2: EbovGPscFv13-1 (scFv)
scFv: MAWSHPQFEKTGSGQVQLQQSGAELVKPGASVKLSCKASGYTFTEYTIHWVKQRSGQGLEWIGWFYPGSGSIKYDEKFKDKATLTADKSSSTVYMELSRLTSEDSAVYFCARHEPYYYGSSYEGPFDYWGQGTTLTVSSGGGGSGGGGSGGGGSGGGGSSPLSVSAGEKVTMSCKSSQSLLNSGNQKNYLAWYQQKPGQPPKLLIYGASTRESGVPDRFTGSGSGTDFTLTISSVQAEDLAVYYCQNDHSYPLTFGAGTKLELKRADAAPTVSIFPPSSEQLTSGGASVVCFLNNFTHCQELQQDECS
B2: the binding result in assay [1] was “binds”.

B3: EbovGPscFv27-5 (scFv)
scFv: MAWSHPQFEKTGSGQVQLQQSGAELVKPGASVKSSCTATGFNIKDYYIHWVKQRTEQGLEWIGRIDPEDGETKYAPKFQGKATITADISPNTAYLQPSSLTSEDTAVYYCTRGGYYGPWYFDVWGTGTTVTVSSGGGGSGGGGSGGGGSGGGGSASLSVSVGETVTITCRASENIYSYLAWYQQKQGKSPQLLVYNAKTLAEGVPSRFSGSGSGTQFSLKINNLQPEDFGSYYCQRHYDTPYTFGGGTKLEIKRADAAPTVSIFPPSSEQLTSGGASVVCFLNNFTHCQELQQDECS
For the molecule B3, the binding result in [2], in assay [3], in [4] and in [5] was “no binding” in each case.

B4: EbovGPscFv35-2 (scFv)
scFv: MAWSHPQFEKTGSGDVKLQESGPGLVKPSQSLSLTCSVTGYSITSGYYWNWIRQFPGNKLEWMGYISYDGSNNYNPSLKNRISITRDTSKNQFFLKLNSVTTEDTATYYCARESPYYGSSHWYFGVWGTGTTVTVSSGGGGSGGGGSGGGGSGGGGSASLSASVGETVTITCRTSENIYSYLAWYQQKQGKSPQLLVYNAKTLAEGVPSRFSGSGSGTQFSLKINSLQPEDFGSYYCQHHYGIPPWTFGGGTKLEIKRADAAPTVSIFPPSSEQLTSGGASVVCFLNNFTHCQELQQDECS
Regarding B4, in assay [1], the binding result is given as “binds”.

B5: EbovGPscFv22-1 (scFv)
scFv: MAWSHPQFEKTGSGQVQLQQPGTELVKPGASVKLSCKASGYTFTSYWMHWVKQRPGQGLEWIGNTNPSNGGTNYNEKFKSKATLTVDKSSNTAYMQLSSLTSEDSAVYYCARSVSGNFAYWGQGTLVTVSAGGGGSGGGGSGGGGSGGGGSLSLPVSLGDQASISCRSSQSLVHSNGNTYLHWYLQKPGQSPKLLIYKVSNRFSGVPDRFSGSGSGTDFTLKISRVEAEDLGVYFCSQSTHVPWTFGGGTKLEIKRADAAPTVSIFPPSSEQLTSGGASVVCFLNNFTHCQELQQDECS
Consider B5, for which the EC50 (commonly the concentration at which the effect is half-maximal) in assay [6] was 11.6 µg/mL and < 12 µg/mL; in assay [7] it was < 12 µg/mL and 7.94 µg/mL; in [8], < 12 µg/mL and 7.36 µg/mL; in assay [9], < 12 µg/mL and 6.58 µg/mL; in assay [10], 9 µg/mL and < 12 µg/mL; in [16], 12 µg/mL. Also, the Bmax signal in [11] stood at 270000 relative absorbance units; in [12], 280000 relative absorbance units; in assay [13] it was 370000 relative absorbance units; in assay [14], 250000 relative absorbance units; in assay [15], 320000 relative absorbance units.
